Assay: yeast display, Sf9 membrane polyspecificity reagent, FACS + sequencing; frameworks hold sequencing errors
Outline: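 A synthetic nanobody library was expressed on Saccharomyces cerevisiae BJ5465 by galactose induction for 36–48 hours. The library was stained for 1 hour at 4 °C with 10% biotinylated, detergent-solubilized Sf9 membrane reagent and enriched with streptavidin microbeads before FACS. Low and high (top ~1%) gates were set on anti-HA fluorescence for expression and streptavidin fluorescence for reagent binding, and each polyreactivity label reflects the gate of origin.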

Sequence | polyreactivity (PSR sort gate)
QVQLVESGGGIVQAGGSLRLICAASGITFTVYAMGWDRTAPWKARELVAASCSSGSTTYADSVKGRFTFSRDNAKNTVYLQMNSVKPQDPAVYYCAAEGYYRFSTAYFRKKYEYWGQGTQVTVSS | low polyreactivity
QVQLVESGGGLVQAGGSLRLSCAASGSTFSGNAMGWYRQAPGKERELVAAISSGGDTYYADSVKGRFTNSRDNAKNTVYLQMNSLKPEDTAVYYCNARSTWRHRRDQVDFDYWGQGTQVTVSS | low polyreactivity
QVQLVESGGGLVQAGGSLRLSCAASGLIFITYAMGWYRQAPGKERELVATITLRGGSTYYADSVKGRFTISRDNAKNTVYLQMNSLKPEDTAVYYCAARYFSYYILRRIYPVREDYWGQGTQVTVSS | low polyreactivity
QVQLVESGGGLVQAGGSLRLSCAASGSNILQNAMGWYRQAPGKERELVAAITNGGSTNYADSVKGRFTISRDNAKNTVYLQMNSLKPDDTAVYYCAAYPLYTGSYDRGGYWGQGTQVTVSS | low polyreactivity
QVQLVESGGGLVQAGGSLRLSCAASGFTFKYYAMGWYRQAPGKERELVAAITSGGSTYADSVKGRFTISRDNAKITVYLQMNSLKPEDTAVYYCAASIDSGKWLGRRYDYWGQGTQVTVSS | low polyreactivity
QVQLLESGGGIVQAGGILRLSCAASGITIGWYAMGWYRPAPGKERELVASISSSGSTNYADSVKGLFTISRDNAKNTFYLQMNSMKPEDTAVYYCNKDYLLRHYYIYVIEGDYWGQGTQVTVSS | low polyreactivity
QVQLVESGGGLVQAGGSLRLSCAASGSIFSAYAMGWYRQAPGKERELVAAISWRTGRTYYADSVKGRFTISRDNAKNTVYLQMNSLKPEDTAVYYCAVVLGVRPYDKHDYWGQGTQVTVSS | high polyreactivity
QVQIVESGGGLVQAGGSLRLSCSASGSTFPFYAMGWYRQAPGKERELVAAITRSGSRTYYADSVKGRFTISRDNAKNTVFLQMNSLKPEDTAVYYFAASSTDLYFWGQGTQVTVSS | high polyreactivity
QDQLVESGGGIVQAGGSLRLSCAASGSTFPIYAMGWYRQAPGKERELVADITSTGSTDYADSVKGRFTISRDNAKNTVYLQMNSLKPEDTAVYYCAADYYYSAYFWSDFDYWGQGTQVTVSS | high polyreactivity
QVQLVESGGGLVQAGGSLRLSCAASGLTFSVYAMGWYRQAPGKERELVAAITRNGGSTYYADSVKGRFTISRDNAKNTVYLQMNSLKTEDTAVYYCAADASSKLYDYWGQGTQVSVSS | low polyreactivity
QVQLVESGGGLVQAGGSLRLSRASSGVISYRNAMGWYRKAPGKERQLVASITSSGGRTYYADSVKGRFTISRDYATNSVFLQMNSLKPEDTAVYYCADDNWYKKLKRPSAYDYWGQGTQVTVSS | high polyreactivity
QVQLVESGGGLVQAGGSLRLSCAASGIIFGRNVMGWYRQAPGKERELVAAISWSGGSTYYADSVKGRFTISRDNAKNTVYLQMNSLKPEDTAVYYCAASYWWIPMEYWGQGTQVTVSS | high polyreactivity
QVQLVESGGGLVQAGGSLRLSCAASGSTFTDYDMGWYRQAPGKERELVAAITSGGSTNYADSVKGRFTISRDNAKNTVYLQMNSLKPEDTAVYYCKVRPYGFDSEFDYWGQGTQVTVSS | low polyreactivity
QVQLEESGGGLVQAGGSLRLSCAASGRIFGIYAMGWYRQAPGKERELVASITDGTITNYADSVKGRFTISRDNAKNTVYLQMNSLKPEDTAVYYCAAGTQAHAFVVRPIEMDYWGQGTQVTVSS | low polyreactivity
QVQLVESGGGLVQAGGSHRLSCAASGRTFWYTMGWYRQAPGKERELVAAITWSGGSTYYADSVKGRFTISRDNAMNTVYLQMNSLNPEDTAVYYWNAADYQLWFGYDYWGQGTQVTVSS | low polyreactivity
QVQLVESGGGLVQAGGSLRLSCAASGSIFYAYTMGWYRQAPGKERELVARITQSDDGTYYADSVKGRFTISRDNAKNTVYLQMNSLKPEDTAVYYCAVVFWQLAHRYDYWGQGTQVTVSS | low polyreactivity
QVQLVESGGGLVQAGGSLRLSCAASGRIFAYYAKGWYRQAPRKQRELVAAISSGGNTNYADSVKGRFTISRDNAKKTVYLQMNSLKPEDSAVYYCSAYHFSFGWIRVDDWGQGTQVTVSS | high polyreactivity
QVQLVESGGGLVQAGGSLRLSCAASGIIFSYNVMGWYRQAPGKEREFVADITWNGGSTYYADSVKGRFTISRDNAKNTVYLQMNSLKPEDTAVYYCATGWPWYSNYASAYDYWGQGTQVTVSS | low polyreactivity
QVQLVESGGGLVQAGGSLRLSCAASGSTFVPYAMGWYRQAPGKERELVAAITTSGGNTYYADSVKGRFTISRDNAKNTVYLQMNSLKPEDTAVYYCAADTYRRFDYWGEGTQVTVSS | low polyreactivity
QVQLVESGGGLVQAGGSLRLSCAASGRIFWGNAMGWYRQAPGKERELVAAITSGDGTNYADSVKGRFTISRDNAKNTVYLQMNSLKPEDTAVYYCSYYYWGQGTQVTVSS | low polyreactivity
QVQLVESGGGLVQAGGSLRLSCAASGFTIRRYAMGWYRQAPGKERELVAAITTGGSTYYADSVKGRFTISRDNAKNTVYLQMNSLKPEDTAVYYCATDTYPYPLYYSPGAYGYWGQGTQVTVSS | high polyreactivity

From the nanobody polyreactivity screen of Harvey et al. (2022)
